Source: US12365738B2, “Method of treating an interleukin-11-associated or -mediated fibrotic disease or condition by administering an anti-interleukin-11 receptor subunit alpha (IL-11RA) antibody” (Lassen Therapeutics, Inc., priority 2021, dated 2025)

T1: hIL-11Rα (Homo sapiens, UniProt Q14626)
T1 sequence (Q14626 23-422): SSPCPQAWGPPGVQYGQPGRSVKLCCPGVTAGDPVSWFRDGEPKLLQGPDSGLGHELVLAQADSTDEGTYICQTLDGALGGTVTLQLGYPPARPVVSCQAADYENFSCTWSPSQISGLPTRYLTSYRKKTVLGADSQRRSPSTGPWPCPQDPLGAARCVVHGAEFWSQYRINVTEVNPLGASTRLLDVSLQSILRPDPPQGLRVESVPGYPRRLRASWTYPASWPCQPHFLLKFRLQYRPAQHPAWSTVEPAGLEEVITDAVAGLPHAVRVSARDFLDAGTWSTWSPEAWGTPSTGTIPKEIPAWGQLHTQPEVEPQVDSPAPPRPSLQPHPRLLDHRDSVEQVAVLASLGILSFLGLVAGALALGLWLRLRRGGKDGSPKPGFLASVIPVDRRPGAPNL

B1: mAb14: anti-IL-11Rα antibody, human IgG4 (S228P), kappa; VH SEQ ID NO: 219, VL SEQ ID NO: 220 (antibody, V domains shown)
VH: EVQLLESGGGLVQPGGSLRLSCAASGFTFSWYSMTWVRQAPGKGLEWVSSIVPYGDLTQYAESVKGRFTISRDNSKNTLYLQMNSLRAEDTAVYYCAKGPGWGSFDLWGRGTLVTVSS
VL: DIQMTQSPSSLSASVGDRVTITCQASQDINNYLNWYQQKPGKAPKLLIYDASNLQTGVPSRFSGSGSGTDFTFTISSLQPEDIATYYCQQHESQSPTFGPGTKVDIK
modifications: IgG4 S228P kappa constant regions; mAb14 VH Chain; mAb14 VL Chain
B2: mAb6: anti-IL-11Rα antibody, human IgG4 (S228P), kappa; VH SEQ ID NO: 203, VL SEQ ID NO: 204 (antibody, V domains shown)
VH: EVQLLESGGGLVQPGGSLRLSCAASGFTFSWYSMTWVRQAPGKGLEWVSSIVPYGDLTQYADSVKGRFTISRDNSKNTLYLQMNSLRAEDTAVYYCAKGPGWGSFDLWGRGTLVTVSS
VL: DIQMTQSPSSLSASVGDRVTITCQASQDINNYLNWYQQKPGKAPKLLIYDASNLQTGVPSRFSGSGSGTDFTFTISSLQPEDIATYYCQQHEFQSPTFGPGTKVDIK
modifications: human IgG4 S228P and kappa constant regions; mAb6 VH Chain; mAb6 VL Chain
B3: mAb12: anti-IL-11Rα antibody, human IgG4 (S228P), kappa; VH SEQ ID NO: 215, VL SEQ ID NO: 216 (antibody, V domains shown)
VH: EVQLLESGGGLVQPGGSLRLSCAASGFTFSWYSMTWVRQAPGKGLEWVSSIVPYGDLTQYADSVKGRFTISRDNSKNTLYLQMNSLRAEDTAVYYCAKGPGWYSFDLWGRGTLVTVSS
VL: DIQMTQSPSSLSASVGDRVTITCQASQDINNYLNWYQQKPGKAPKLLIYDASNLQTGVPSRFSGSGSGTDFTFTISSLQPEDIATYYCQQHESQSPTFGPGTKVDIK
modifications: IgG4 S228P kappa constant regions; mAb12 VH Chain; mAb12 VL Chain
B4: mAb10: anti-IL-11Rα antibody, human IgG4 (S228P), kappa; VH SEQ ID NO: 211, VL SEQ ID NO: 212 (antibody, V domains shown)
VH: EVQLLESGGGLVQPGGSLRLSCAASGFTFSWYSMTWVRQAPGKGLEWVSSIVAYGDLTQYADSVKGRFTISRDNSKNTLYLQMNSLRAEDTAVYYCAKGPGWGSFDLWGRGTLVTVSS
VL: DIQMTQSPSSLSASVGDRVTITCQASQDINNYLNWYQQKPGKAPKLLIYDASNLQTGVPSRFSGSGSGTDFTFTISSLQPEDIATYYCQQHESQSPTFGPGTKVDIK
modifications: IgG4 S228P kappa constant regions; mAb10 VH Chain; mAb10 VL Chain
B5: mAb9: anti-IL-11Rα antibody, human IgG4 (S228P), kappa; VH SEQ ID NO: 209, VL SEQ ID NO: 210 (antibody, V domains shown)
VH: EVQLLESGGGLVQPGGSLRLSCAASGFTFSWYSMTWVRQAPGKGLEWVSGIVPYGDLTQYADSVKGRFTISRDNSKNTLYLQMNSLRAEDTAVYYCAKGPGWGSFDLWGRGTLVTVSS
VL: DIQMTQSPSSLSASVGDRVTITCQASQDINNYLNWYQQKPGKAPKLLIYDASNLQTGVPSRFSGSGSGTDFTFTISSLQPEDIATYYCQQHESQSPTFGPGTKVDIK
modifications: human IgG4 S228P and kappa constant regions; mAb9 VH Chain; mAb9 VL Chain
B6: mAb13: anti-IL-11Rα antibody, human IgG4 (S228P), kappa; VH SEQ ID NO: 217, VL SEQ ID NO: 218 (antibody, V domains shown)
VH: EVQLLESGGGLVQPGGSLRLSCAASGFTFSWYSMTWVRQAPGKGLEWVSSIVPYGDLTQYADSVKGRFTISRDNSKNTLYLQMNSLRAEDTAVYYCAKPEDWGRFDLWGRGTLVTVSS
VL: DIQMTQSPSSLSASVGDRVTITCQASQDINNYLNWYQQKPGKAPKLLIYDASNLQTGVPSRFSGSGSGTDFTFTISSLQPEDIATYYCQQHESQSPTFGPGTKVDIK
modifications: IgG4 S228P kappa constant regions; mAb13 VH Chain; mAb13 VL Chain
B7: mAb8: anti-IL-11Rα antibody, human IgG4 (S228P), kappa; VH SEQ ID NO: 207, VL SEQ ID NO: 208 (antibody, V domains shown)
VH: EVQLLESGGGLVQPGGSLRLSCAASGFTFSSYAMSWVRQAPGKGLEWVSSIVPYGDLTQYADSVKGRFTISRDNSKNTLYLQMNSLRAEDTAVYYCAKGPGWGSFDLWGRGTLVTVSS
VL: DIQMTQSPSSLSASVGDRVTITCQASQDINNYLNWYQQKPGKAPKLLIYDASNLQTGVPSRFSGSGSGTDFTFTISSLQPEDIATYYCQQHESQSPTFGPGTKVDIK
modifications: human IgG4 S228P and kappa constant regions; mAb8 VH Chain; mAb8 VL Chain
B8: mAb7: anti-IL-11Rα antibody, human IgG4 (S228P), kappa; VH SEQ ID NO: 205, VL SEQ ID NO: 206 (antibody, V domains shown)
VH: EVQLLESGGGLVQPGGSLRLSCAASGFTFSNYAMSWVRQAPGKGLEWVSSIVPYGDLTQYADSVKGRFTISRDNSKNTLYLQMNSLRAEDTAVYYCAKGPGWGSFDLWGRGTLVTVSS
VL: DIQMTQSPSSLSASVGDRVTITCQASQDINNYLNWYQQKPGKAPKLLIYDASNLQTGVPSRFSGSGSGTDFTFTISSLQPEDIATYYCQQHESQSPTFGPGTKVDIK
modifications: human IgG4 S228P and kappa constant regions; mAb7 VH Chain; mAb7 VL Chain
B9: mAb11: anti-IL-11Rα antibody, human IgG4 (S228P), kappa; VH SEQ ID NO: 213, VL SEQ ID NO: 214 (antibody, V domains shown)
VH: EVQLLESGGGLVQPGGSLRLSCAASGFTFSWYSMTWVRQAPGKGLEWVSSIVDYGDLTQYADSVKGRFTISRDNSKNTLYLQMNSLRAEDTAVYYCAKGPGWGSFDLWGRGTLVTVSS
VL: DIQMTQSPSSLSASVGDRVTITCQASQDINNYLNWYQQKPGKAPKLLIYDASNLQTGVPSRFSGSGSGTDFTFTISSLQPEDIATYYCQQHESQSPTFGPGTKVDIK
modifications: IgG4 S228P kappa constant regions; mAb11 VH Chain; mAb11 VL Chain
B10: mAb15: anti-IL-11Rα antibody, human IgG4 (S228P), kappa; VH SEQ ID NO: 221, VL SEQ ID NO: 222 (antibody, V domains shown)
VH: EVQLLESGGGLVQPGGSLRLSCAASGFTFSWYSMTWVRQAPGKGLEWVSSIVPYGDLTQYADSVKGRFTISRDNSKNTLYLQMNSLRAEDTAVYYCAKGPGWGSFDLWGRGTLVTVSS
VL: DIQMTQSPSSLSASVGDRVTITCQASQDINNYLNWYQQKPGKAPKLLIYDASNLQTGVPSRFSGSGSGTDFTFTISSLQPEDIATYYCQQHETQTPTFGPGTKVDIK
modifications: IgG4 S228P kappa constant regions; mAb15 VH Chain; mAb15 VL Chain

Assays:
hIL-11Rα = target: T1, hIL-11Rα; assay: Kinetic binding analysis by biolayer interferometry (protein G biosensors, Octet RED96e)
Protocol: Association was carried out in the presence of a 2-fold dilution series of hIL-11Rα and was allowed to proceed for 120 seconds; dissociation was measured for 300 to 1200 seconds.

[1] = system: IL-11 signaling (STAT3 Reporter (Luciferase)-HEK293 cell line); assay: Cell-based STAT3 reporter (luciferase) HEK293 assay for inhibiting IL-11 signaling; design: species or system human
Protocol: Further testing of the lead mAbs was carried out using a cell-based reporter assay. IL-11 is reported to signal through the STAT3 and ERK pathways. Therefore, a STAT3 reporter cell line in which firefly luciferase gene expression is driven by STAT3 response elements located upstream of a minimal TATA promoter was selected to analyze mAb functional activity. In these cells, IL-11 can activate the endogenous STAT3 allowing it to bind to the STAT3 response elements, inducing transcription of the luciferase reporter gene and resulting in readily detectable luciferase expression. Antibodies to IL-11R which block IL-11 signaling should inhibit expression of IL-11 driven luciferase in these cells.
The STAT3 Reporter (Luciferase)—HEK293 cell line (BPS Bioscience, catalog #79800-P) was grown, passaged, and assayed as per manufacturer's protocols. Cells were added at 25,000 cells per well in a 96-well microtiter dish and incubated at 37° C. for 30-45 min. in 5% CO2 humidified air. Anti-IL-11R mAbs were added as a 3-fold dilution series in duplicate columns or rows, and plates were returned to the incubator for an additional 1 h at 37° C. after which 40 ng/mL IL-11 was added to each well to initiate the signal transduction cascade and luciferase production. Plates were incubated for 18-24 hours at 37° C. and luciferase was detected using a One-Step Luciferase Assay System (BPS Bioscience, cat. no. 60690-1) as per manufacturer's instructions.

Molecule | ka (hIL-11Rα) [M⁻¹ s⁻¹] | kd (hIL-11Rα) [s⁻¹] | potency at inhibiting IL-11 signaling relative to TS7 / 8E2 (in words) [1]
B1 | 33700 | <1e-07 | comparable in potency to TS7
B2 | 800000 | <1e-07 | variable
B3 | 58100 | <1e-07 | comparable in potency to TS7
B4 | 840000 | 0.000416 | less potent than TS7
B5 | 62200 | <1e-07 | more potent at inhibiting IL-11 signaling than either of TS7 or 8E2
B6 | 66700 | <1e-07 | more potent at inhibiting IL-11 signaling than either of TS7 or 8E2
B7 | 65100 | <1e-07 | less potent than TS7
B8 | 63500 | <1e-07 | less potent than TS7
B9 | 32900 | 0.0181 | less potent than TS7
B10 | 84000 | <1e-07 | comparable in potency to TS7
